Measurements as given in paper PMC7018383.

Target: β2B (UniProt Q08289)
Experiment: flow-cytometric FRET 2-hybrid

Rad, sequence (O88667 whole entry, looked up, change not shown): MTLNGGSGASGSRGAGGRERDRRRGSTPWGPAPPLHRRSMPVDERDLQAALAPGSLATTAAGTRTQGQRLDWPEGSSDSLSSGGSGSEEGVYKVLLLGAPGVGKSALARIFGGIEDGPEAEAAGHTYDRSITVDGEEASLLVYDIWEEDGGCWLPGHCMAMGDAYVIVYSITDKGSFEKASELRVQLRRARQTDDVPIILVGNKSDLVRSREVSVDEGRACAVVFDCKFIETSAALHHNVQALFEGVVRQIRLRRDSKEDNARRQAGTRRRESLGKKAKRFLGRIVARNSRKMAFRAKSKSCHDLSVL

“Rad (from UniProt O88667) 4-SA Rad with PKAcat” was tested, and the “other: Kd,EFF (FRET 2-hybrid, relative)” value (reference: WT Rad with PKAcat, sites S25,S38,S272,S300) was “stronger; reference 145231 ± 3084”.

With “Rad (from UniProt O88667) 4-SA Rad, PKAcat co-expressed” the “other: Kd,EFF (FRET 2-hybrid, relative)” value (reference: 4-SA Rad, no PKAcat) was “same; reference 4346± 197”.

For “Rad (from UniProt O88667) WT Rad, PKAcat co-expressed”, the “other: Kd,EFF (FRET 2-hybrid, relative)” value (reference: WT Rad, no PKAcat, sites S25,S38,S272,S300) was “weaker; reference 7957 ± 418”.
